Assay results as given in patent US20260062488A1.
“And” between values parts separate entries of the source, which are not always exact repeats. Equal entries are not always repeated. Where two headings read alike, the source gives them in different places.

Tests used:
[1] = biological target: cynomolgus α4β7 integrin (cynomolgus monkey); assay: FACS, cyno CD4+ naïve
[2] = biological target: cynomolgus α4β7 integrin (cynomolgus monkey); assay: FACS, cyno CD4+ total
[3] = biological target: cynomolgus α4β7 integrin (cynomolgus monkey); assay: FACS, cyno CD8+ naïve
[4] = biological target: cynomolgus α4β7 integrin (cynomolgus monkey); assay: FACS, cyno CD8+ total
[5] = biological target: cynomolgus α4β7 integrin (cynomolgus monkey); assay: FACS, cyno CD8+ memory
[6] = biological target: human α4β7 integrin (human) (UniProt P13612); assay: FACS, human CD4+ naïve
[7] = biological target: human α4β7 integrin (human) (UniProt P13612); assay: FACS, human CD4+ total
[8] = biological target: human α4β7 integrin (human) (UniProt P13612); assay: FACS, human CD8+ naïve
[9] = biological target: human α4β7 integrin (human) (UniProt P13612); assay: FACS, human CD8+ total
[10] = biological target: human α4β7 integrin (human) (UniProt P13612); assay: flow cytometry, HuT78 cells
[11] = biological target: human α4β7 integrin (human) (UniProt P13612); assay: FACS titration on BaF3-hα4β7
[12] = biological target: human α4β7 integrin (human) (UniProt P13612); assay: binding to human lymphocytes
[13] = biological target: human α4β7 integrin (human) (UniProt P13612); assay: ELISA on coated α4β7+GFP+VLPs
[14] = biological target: cynomolgus αEβ7 integrin (cynomolgus monkey); assay: FACS, 1 µg/ml, BaF3-cαEβ7 cells
[15] = biological target: human α4β7 integrin (human) (UniProt P13612); assay: FACS, 1 µg/ml, BaF3-hα4β7 cells
[16] = biological target: human αEβ7 integrin (human) (UniProt P38570); assay: FACS, 1 µg/ml, BaF3-hαEβ7 cells
[17] = biological target: cynomolgus αEβ7 integrin (cynomolgus monkey); assay: FACS, 1 µg/ml, BaF3-cαEβ7 cells; remark: listed apart in the source
[18] = biological target: human α4β7 integrin (human) (UniProt P13612); assay: FACS, 1 µg/ml, BaF3-hα4β7 cells; remark: listed apart in the source
[19] = biological target: human αEβ7 integrin (human) (UniProt P38570); assay: FACS, 1 µg/ml, BaF3-hαEβ7 cells; remark: listed apart in the source
[20] = biological target: cynomolgus α4β7 integrin (cynomolgus monkey); assay: FACS, 1 µg/ml, CHOK1-cα4β7 cells
[21] = biological target: human α4β1 integrin (human) (UniProt P05556); assay: FACS, 1 µg/ml, CHOK1-hα4β1 cells
[22] = biological target: mouse α4β7 integrin (mouse) (UniProt Q00651); assay: FACS, 1 µg/ml, CHOK1-mα4β7 cells
[23] = biological target: cynomolgus α4β7 integrin (cynomolgus monkey); assay: FACS, 1 µg/ml, CHOK1-cα4β7 cells; remark: listed apart in the source
[24] = biological target: human α4β1 integrin (human) (UniProt P05556); assay: FACS, 1 µg/ml, CHOK1-hα4β1 cells; remark: listed apart in the source
[25] = biological target: human α4β7 integrin (human) (UniProt P13612); assay: FACS, primary human CD4+ memory T cells
[26] = biological target: human α4β7 integrin (human) (UniProt P13612); assay: blockade of HuT78 cell adhesion to MAdCAM-1
[27] = biological target: human α4β7 integrin (human) (UniProt P13612); assay: blockade of HuT78 cell adhesion to MAdCAM-1; remark: listed apart in the source
[28] = biological target: cynomolgus α4β7 integrin (cynomolgus monkey); assay: blockade of CHOK1/cα4β7 adhesion to MAdCAM-1
[29] = biological target: cynomolgus α4β7 integrin (cynomolgus monkey); assay: blockade of CHOK1-cα4β7 cell adhesion to MAdCAM-1
[30] = biological target: cynomolgus α4β7 integrin (cynomolgus monkey); assay: blockade of CHOK1-cα4β7 cell adhesion to MAdCAM-1; remark: listed apart in the source
[31] = biological target: human α4β7 integrin (human) (UniProt P13612); assay: blockade of MAdCAM-1 mediated HuT78 cell adhesion
[32] = biological target: human α4β7 integrin (human) (UniProt P13612); assay: virion capture, Protein G plate, HIV BCF06, p24 gag
[33] = biological target: human α4β7 integrin (human) (UniProt P13612); assay: virion capture, Protein G plate, HIV CMU08, p24 gag
[34] = biological target: human α4β7 integrin (human) (UniProt P13612); assay: virion capture, Protein G plate, HIV NL4-3, p24 gag
[35] = biological target: human α4β7 integrin (human) (UniProt P13612); assay: virion capture, Protein G plate, HIV RU570, p24 gag
[36] = biological target: human α4β7 integrin (human) (UniProt P13612); assay: virion capture, Protein G plate, HIV YBF30, p24 gag
[37] = biological target: human α4β7 integrin (human) (UniProt P13612); assay: HuT78 cells, FACS-based blockade of MAdCAM-1 binding
[38] = biological target: human α4β7 integrin (human) (UniProt P13612); assay: competitive FACS, 50x excess of non-labelled competitor Ab-m1
[39] = biological target: human α4β7 integrin (human) (UniProt P13612); assay: competitive FACS, 50x excess of non-labelled competitor Ab-Abri
[40] = biological target: human α4β7 integrin (human) (UniProt P13612); assay: competitive FACS, 50x excess of non-labelled competitor Ab-Etro
[41] = biological target: human α4β7 integrin (human) (UniProt P13612); assay: competitive FACS, 50x excess of non-labelled competitor Ab-Vedo
[42] = biological target: human α4β7 integrin (human) (UniProt P13612); assay: blockade of RPMI 8866 cell binding to immobilised gp120-V2 WT peptide
[43] = biological target: human α4β7 integrin (human) (UniProt P13612); assay: human lymphocytes, printed as plate-based cell adhesion blockade to MAdCAM-1
[44] = biological target: human α4β7 integrin (human) (UniProt P13612); assay: row IC50 (pM) HuT78 of the binning table (assay not explained, presumably adhesion to MAdCAM-1)
[45] = biological target: human α4β7 integrin (human) (UniProt P13612); assay: ELISA on plates coated with α4β7+GFP+VLPs; table drawn under the plot, without unit: unit from the axis '[Ab] (nM)'; the text prints the rounded 0.058 nM
[46] = biological target: human α4β7 integrin (human) (UniProt P13612); assay: blockade of HuT78 cell adhesion to plate-bound MAdCAM-1, representative experiment; the two IC50 lines under the plot bear no name: the higher one is given to Ab-Vedo, whose curve lies right of Ab-m1's (midpoint near log -1.8 ug/ml)
[47] = biological target: cynomolgus α4β7 integrin (cynomolgus monkey); assay: blockade of CHOK1-cα4β7 cell adhesion to MAdCAM-1, representative experiment; the two IC50 lines under the plot bear no name: the higher one is given to Ab-Vedo, whose curve lies clearly right of Ab-m1's (midpoint near log -0.9 ug/ml)
[48] = biological target: human α4β7 integrin (human) (UniProt P13612); assay: cell-based or functional assay

Chain of Ab-Vedo (antibody) (VH): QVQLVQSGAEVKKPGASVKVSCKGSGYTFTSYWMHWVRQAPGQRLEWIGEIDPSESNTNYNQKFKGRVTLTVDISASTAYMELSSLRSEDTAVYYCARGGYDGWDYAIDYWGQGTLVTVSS
Chain of Ab-Vedo (antibody) (VL): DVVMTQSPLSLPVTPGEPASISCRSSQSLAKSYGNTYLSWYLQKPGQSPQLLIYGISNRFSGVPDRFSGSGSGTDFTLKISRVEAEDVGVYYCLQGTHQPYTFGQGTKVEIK
Chain of mouse α4β7 integrin (mouse) (Q00651 41-1039, chain 1 of 2): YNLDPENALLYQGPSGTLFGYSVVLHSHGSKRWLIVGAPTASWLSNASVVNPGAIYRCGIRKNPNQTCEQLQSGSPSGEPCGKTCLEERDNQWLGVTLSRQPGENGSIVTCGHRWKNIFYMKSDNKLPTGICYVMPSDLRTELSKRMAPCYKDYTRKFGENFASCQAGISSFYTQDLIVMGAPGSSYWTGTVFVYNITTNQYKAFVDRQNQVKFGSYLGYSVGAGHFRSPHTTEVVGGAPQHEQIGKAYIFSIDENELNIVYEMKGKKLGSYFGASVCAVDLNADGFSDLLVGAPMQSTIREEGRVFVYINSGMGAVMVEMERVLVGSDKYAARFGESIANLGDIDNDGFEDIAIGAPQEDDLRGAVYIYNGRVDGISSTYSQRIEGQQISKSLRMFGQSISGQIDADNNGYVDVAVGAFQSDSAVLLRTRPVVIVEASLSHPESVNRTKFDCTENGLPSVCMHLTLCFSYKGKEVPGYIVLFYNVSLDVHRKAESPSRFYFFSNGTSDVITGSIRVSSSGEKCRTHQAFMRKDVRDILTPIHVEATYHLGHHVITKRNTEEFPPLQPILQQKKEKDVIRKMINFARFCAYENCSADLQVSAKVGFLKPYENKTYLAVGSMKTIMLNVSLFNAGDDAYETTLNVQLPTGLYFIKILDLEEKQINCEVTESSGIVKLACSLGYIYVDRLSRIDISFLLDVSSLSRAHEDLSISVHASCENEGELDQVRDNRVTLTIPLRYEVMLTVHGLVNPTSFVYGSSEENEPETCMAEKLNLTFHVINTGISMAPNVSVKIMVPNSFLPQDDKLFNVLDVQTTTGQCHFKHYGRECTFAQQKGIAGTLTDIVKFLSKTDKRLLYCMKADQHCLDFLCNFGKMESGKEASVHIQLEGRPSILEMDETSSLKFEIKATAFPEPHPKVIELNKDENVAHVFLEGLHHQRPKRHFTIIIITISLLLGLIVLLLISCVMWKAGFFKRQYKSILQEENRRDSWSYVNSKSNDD
Chain of mouse α4β7 integrin (mouse) (P26011 20-806, chain 2 of 2, further chain): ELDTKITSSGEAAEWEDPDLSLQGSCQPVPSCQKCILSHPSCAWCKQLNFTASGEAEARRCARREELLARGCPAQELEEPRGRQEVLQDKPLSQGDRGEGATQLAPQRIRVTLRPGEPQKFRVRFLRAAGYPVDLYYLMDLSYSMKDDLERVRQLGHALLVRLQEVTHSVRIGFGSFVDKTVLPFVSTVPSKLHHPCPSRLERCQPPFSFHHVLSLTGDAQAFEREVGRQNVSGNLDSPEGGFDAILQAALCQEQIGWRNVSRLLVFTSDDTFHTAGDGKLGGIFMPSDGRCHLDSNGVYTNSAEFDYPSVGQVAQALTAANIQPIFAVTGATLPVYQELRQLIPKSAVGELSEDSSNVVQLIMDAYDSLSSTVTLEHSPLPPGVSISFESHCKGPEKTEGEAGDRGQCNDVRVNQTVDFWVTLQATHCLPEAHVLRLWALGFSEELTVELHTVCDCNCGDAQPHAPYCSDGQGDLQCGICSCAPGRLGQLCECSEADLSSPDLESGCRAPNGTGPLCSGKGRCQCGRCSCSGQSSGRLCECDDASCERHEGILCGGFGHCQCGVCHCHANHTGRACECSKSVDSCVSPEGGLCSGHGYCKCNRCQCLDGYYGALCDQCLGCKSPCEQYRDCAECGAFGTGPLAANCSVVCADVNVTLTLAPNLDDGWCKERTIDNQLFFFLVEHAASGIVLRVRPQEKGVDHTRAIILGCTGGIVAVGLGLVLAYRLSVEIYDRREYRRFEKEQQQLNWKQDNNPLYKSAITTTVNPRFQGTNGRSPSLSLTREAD

## Ab-Vedo (antibody)
[1]
  EC50: 228 pM
[2]
  EC50: 202 pM
[3]
  EC50: 256 pM
[4]
  EC50: 199 pM
[5]
  EC50: 204 pM
[6]
  EC50: 381 pM
[7]
  EC50: 381 pM
[8]
  EC50: 727 pM
[9]
  EC50: 658 pM
[10]
  EC50: 911 pM
[11]
  EC50: 713 pM
  Max MFI: 848 MFI
[12]
  EC50: 502 pM
[13]
  EC50: 58 pM
[14]
  FACS MFI: 57.2 MFI
[15]
  FACS MFI: 707 MFI
[16]
  FACS MFI: 11.6 MFI
[17]
  FACS MFI: 60.9 MFI
[18]
  FACS MFI: 153 MFI
[19]
  FACS MFI: 19.5 MFI
[20]
  FACS MFI: 101 MFI
[21]
  FACS MFI: 4.23 MFI
[22]
  FACS MFI: 2.91 MFI
[23]
  FACS MFI: 46.5 MFI
[24]
  FACS MFI: 2.87 MFI
[25]
  EC50: 43.2 pM
[26]
  IC50: 94.9 pM
  Max inhibition (%): 86.5%
[27]
  IC50: 57.4 pM
  Max inhibition (%): 94.7%
[28]
  IC50: 120 pM
[29]
  IC50: 562 pM
  Max inhibition (%): 76%
[30]
  IC50: 541 pM
  Max inhibition (%): 94.4%
[31]
  IC50: 31 pM and 60 pM
[32]
  EC50: 0.37 nM and 0.056 µg/mL
[33]
  EC50: 0.5 nM and 0.075 µg/mL
[34]
  EC50: 0.34 nM and 0.05 µg/mL
[35]
  EC50: 0.32 nM and 0.048 µg/mL
[36]
  EC50: 0.48 nM and 0.072 µg/mL
[37]
  IC50: 193 pM
[38]
  percentage of binding inhibition: 76%
[39]
  percentage of binding inhibition: 89%
[40]
  percentage of binding inhibition: 18%
[41]
  percentage of binding inhibition: 88%
[42]
  IC50: 0.042 µg/mL
[43]
  IC50: 630 pM
[44]
  IC50: 89 pM
[45]
  EC50: 58.1 pM
[46]
  IC50: 98.1 pM
[47]
  IC50: 822 pM

## MAdCAM-1 (R&D systems) (from UniProt Q13477 19-317) (ligand)
[48]
  activated (Ki67+CD25+) human primary CD4+ T cells with plate bound anti-CD3 and MAdCAM-1 (22.6% with anti-CD3 alone): 56.6%
